Results as given in US20150307621A1 (Kyowa Kirin, published 2015).

Columns and labels:
[1] = target: T1, mouse CD98 (mouse, UniProt P10852 1-526, limits assumed); test: not described at this place
T1 construct: also called mCD98
T1 sequence (looked up): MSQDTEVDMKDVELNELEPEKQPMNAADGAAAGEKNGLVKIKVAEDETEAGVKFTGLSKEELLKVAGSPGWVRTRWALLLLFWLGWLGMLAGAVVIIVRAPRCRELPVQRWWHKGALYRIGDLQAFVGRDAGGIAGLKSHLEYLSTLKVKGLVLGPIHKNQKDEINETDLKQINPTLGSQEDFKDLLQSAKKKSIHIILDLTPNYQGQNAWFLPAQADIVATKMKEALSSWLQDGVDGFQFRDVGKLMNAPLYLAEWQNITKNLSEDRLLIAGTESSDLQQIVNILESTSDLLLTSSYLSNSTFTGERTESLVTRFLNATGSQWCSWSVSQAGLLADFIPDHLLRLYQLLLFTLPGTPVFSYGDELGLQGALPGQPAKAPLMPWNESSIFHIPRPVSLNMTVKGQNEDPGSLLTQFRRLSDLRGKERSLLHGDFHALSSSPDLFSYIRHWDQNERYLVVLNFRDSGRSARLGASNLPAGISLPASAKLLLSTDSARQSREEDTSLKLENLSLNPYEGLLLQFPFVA

[2] = target: T2, human LAT1-EGFP on L929 cells (human, UniProt Q01650 1-507); test: FACS on hLAT1-E-expressing L929 cells
T2 construct: L929 cells transfected with pEF1/hLAT1-EGFP alone; also called hLAT1-E; hLAT1-EGFP; not shown: EGFP and the short vector-encoded linker (pEGFP-N1) at the C terminus of hLAT1

[3] = target: T3, human CD98 (human, UniProt P08195 2-529); test: FACS, antibody 5 µg/mL, hCD98-expressing L929 cells
T3 construct: also called hCD98; 4F2
T3 sequence: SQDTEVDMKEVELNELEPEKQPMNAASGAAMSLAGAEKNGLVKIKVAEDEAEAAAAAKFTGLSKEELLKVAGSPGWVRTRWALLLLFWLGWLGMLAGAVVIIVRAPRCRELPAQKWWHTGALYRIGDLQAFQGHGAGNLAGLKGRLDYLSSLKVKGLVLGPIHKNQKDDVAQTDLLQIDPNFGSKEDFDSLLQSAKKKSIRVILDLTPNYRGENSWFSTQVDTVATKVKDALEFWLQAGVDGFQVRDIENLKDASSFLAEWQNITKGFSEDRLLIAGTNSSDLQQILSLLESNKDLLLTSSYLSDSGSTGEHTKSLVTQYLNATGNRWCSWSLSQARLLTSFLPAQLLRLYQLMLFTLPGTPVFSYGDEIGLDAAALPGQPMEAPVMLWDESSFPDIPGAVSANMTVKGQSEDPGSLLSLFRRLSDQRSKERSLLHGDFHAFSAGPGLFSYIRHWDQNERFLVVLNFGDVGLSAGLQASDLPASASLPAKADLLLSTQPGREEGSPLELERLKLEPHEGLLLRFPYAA

[4] = target: T4, CD98 on normal human aortic endothelial cells (HAEC) (human, UniProt P08195 2-529); test: FACS on cultured HAEC, antibody 3.2 ng/mL to 50 µg/mL
T4 sequence: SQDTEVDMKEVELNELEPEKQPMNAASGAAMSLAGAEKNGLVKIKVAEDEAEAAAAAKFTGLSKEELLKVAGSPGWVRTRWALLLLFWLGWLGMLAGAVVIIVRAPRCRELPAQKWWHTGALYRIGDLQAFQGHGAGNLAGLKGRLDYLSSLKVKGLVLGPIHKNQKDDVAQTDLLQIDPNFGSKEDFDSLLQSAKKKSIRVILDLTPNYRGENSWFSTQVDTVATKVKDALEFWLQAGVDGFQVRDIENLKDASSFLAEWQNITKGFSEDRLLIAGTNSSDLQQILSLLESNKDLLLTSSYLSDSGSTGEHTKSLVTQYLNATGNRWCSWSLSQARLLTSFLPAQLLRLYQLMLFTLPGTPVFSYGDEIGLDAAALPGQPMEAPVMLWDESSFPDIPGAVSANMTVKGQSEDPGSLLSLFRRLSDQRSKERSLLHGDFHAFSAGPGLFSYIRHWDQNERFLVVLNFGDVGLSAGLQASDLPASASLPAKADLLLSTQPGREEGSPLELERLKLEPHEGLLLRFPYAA

[5] = target: T5, human CD98/human LAT1-EGFP complex on transfected CT26 or L929 cells (human, UniProt P08195 1-529; Q01650 1-507, CD98 and LAT1 are linked by a disulfide bond on the cell membrane); test: FACS, antibody 5 µg/mL, transfected CT26 or L929 cells
T5 construct: also called hCD98/hLAT1-E; hCD98/hLAT1; not shown: EGFP and the short vector-encoded linker (pEGFP-N1) fused to the intracellular C terminus of hLAT1

[6] = target: T6, CD98 on human peripheral blood monocytes, PHA-activated T cells and activated B cells (human, UniProt P08195 2-529); test: FACS with FITC-labeled antibody 5 µg/mL on human peripheral blood cells
T6 sequence: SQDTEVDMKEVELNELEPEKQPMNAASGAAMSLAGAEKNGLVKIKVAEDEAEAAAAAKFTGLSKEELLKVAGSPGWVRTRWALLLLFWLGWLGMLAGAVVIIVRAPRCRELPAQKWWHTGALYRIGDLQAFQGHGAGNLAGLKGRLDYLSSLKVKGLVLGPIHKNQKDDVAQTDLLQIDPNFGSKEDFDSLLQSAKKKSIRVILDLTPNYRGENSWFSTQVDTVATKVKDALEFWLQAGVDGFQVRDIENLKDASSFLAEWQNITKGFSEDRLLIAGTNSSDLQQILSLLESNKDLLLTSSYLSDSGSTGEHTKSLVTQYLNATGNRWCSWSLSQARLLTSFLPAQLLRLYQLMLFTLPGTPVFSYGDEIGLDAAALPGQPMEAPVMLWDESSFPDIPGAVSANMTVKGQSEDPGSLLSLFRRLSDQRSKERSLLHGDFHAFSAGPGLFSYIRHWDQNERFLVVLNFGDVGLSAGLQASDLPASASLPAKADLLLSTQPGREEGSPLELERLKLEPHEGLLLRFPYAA

T2 sequence (Q01650 whole entry): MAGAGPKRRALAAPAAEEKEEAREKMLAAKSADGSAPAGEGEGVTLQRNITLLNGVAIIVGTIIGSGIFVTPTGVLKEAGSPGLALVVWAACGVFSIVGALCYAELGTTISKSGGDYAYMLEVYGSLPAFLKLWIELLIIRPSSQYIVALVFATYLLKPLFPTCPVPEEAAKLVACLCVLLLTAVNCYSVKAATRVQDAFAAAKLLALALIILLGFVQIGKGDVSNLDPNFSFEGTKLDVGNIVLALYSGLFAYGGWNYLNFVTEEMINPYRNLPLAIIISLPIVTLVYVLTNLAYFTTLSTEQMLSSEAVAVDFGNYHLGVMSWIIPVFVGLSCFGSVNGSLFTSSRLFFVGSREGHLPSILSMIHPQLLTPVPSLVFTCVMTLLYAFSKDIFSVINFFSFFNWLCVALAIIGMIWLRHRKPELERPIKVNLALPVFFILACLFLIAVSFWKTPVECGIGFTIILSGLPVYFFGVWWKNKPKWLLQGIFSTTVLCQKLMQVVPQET
T5 sequence (Q01650 whole entry, the tested form may be a part, one chain of several): as the sequence (Q01650 whole entry) above

B1: human anti-CD98 monoclonal antibody 3-69-6 (antibody, V domains shown)
VH: QVQLVQSGAEVKKPGASVKVSCKASGYTFTSYGISWMRQAPGQGLEWMGWISAYNGNTNYVQKFQDRVTMTRDTSTSTAYMELRSLRSDDTAVYYCARDRGSNWYGWFDPWGQGTLVTVSS
VL: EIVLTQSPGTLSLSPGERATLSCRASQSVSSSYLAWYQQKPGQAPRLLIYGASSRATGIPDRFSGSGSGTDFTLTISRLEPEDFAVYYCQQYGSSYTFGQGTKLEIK
notes: Recombinant human IgG1/kappa (N5KG1-Val Lark vector); Entries begin with residues translated from the cloning site (RRPT, RSLT) and the leader peptide; also called 3-69-6IgG1
B1: no binding [1]; no binding (tested: 5 µg/mL) [2].

B2: human anti-CD98 monoclonal antibody K3 (antibody, V domains shown)
VH: EVQLVQSGAEVKKPGESLKISCKGSGYRFTDYWIGWVRQMPGKGLEWMGIFYPGDSDARYSPSFQGQVTISADKSINTAYLQWSSLKASDTAMYYCARRRDIVGGTDYWGQGTLVTVSS
VL: EIVLTQSPATLSLSPGERATLSCRASQSVSSYLDWYQQKPGQAPRLLIYDASSRATGIPARFSGSGSGTDFTLTISSLEPEDFAVYYCQQRSNWITFGQGTRLEIK
notes: Recombinant human IgG1/kappa (variable regions put into the N5KG1-Val Lark vector); The entries begin with the leader peptide; FITC-labelled in some assays; also called 4-32-9; K3IgG1
B2: no binding [1]; no binding (tested: 5 µg/mL) [2]; binds [3]. B2: binds [4]; binds [5]; binds [6].

B3: human anti-CD98 monoclonal antibody 1-40-1 (antibody, V domains shown)
VH: EVQLVESGGGVVRPGGSLRLSCAASGFTFDDYGMTWVRQAPGKGLEWVSTISWNGGGTGYADSVKGRFTISRDNAKNSLYLQMNSLRAEDTALYYCAGYCIITGCYADYWGQGTLVTVSS
VL: EIVLTQSPATLSLSPGERATLSCRASQSVSSYLAWYQQKPGQAPRLLIYDASNRATGIPARFSGSGSGTDFTLTISSLEPEDFAVYYCQQRSNWWTFGQGTKVEIK
notes: Recombinant human IgG1/kappa (N5KG1-Val Lark vector); Entries begin with the leader peptide; also called 1-40-1IgG1
B3: no binding [1]; no binding (tested: 5 µg/mL) [2]; binds [3]. B3: binds [4]; binds [5]; binds [6].

B4: human anti-CD98 monoclonal antibody C2IgG1 (antibody, V domains shown)
VH: QLQLQESGPGLVKPSETLSLTCTVSGGSISSSSYYWGWIRQPPGKGLEWIGSIYYSGSTYYNPSLKSRVTISVDTSKSQFFLKLSSVTAADTAVYYCARQGTGLALFDYWGQGTLVTVSS
VL: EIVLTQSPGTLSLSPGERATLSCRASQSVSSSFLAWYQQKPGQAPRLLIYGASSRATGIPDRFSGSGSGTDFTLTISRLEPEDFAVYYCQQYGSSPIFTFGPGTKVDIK
notes: Recombinant IgG1/kappa form of the C2 hybridoma antibody (hybridoma C2 is IgM); The entries begin with residues translated from the cloning site (STT, RSLT) and the leader peptide; also called 4-35-14
B4: no binding [1]; no binding (tested: 5 µg/mL) [2].
